These results are taken from paper PMC5771398, “Structural basis for assembly of the CBF3 kinetochore complex” (The EMBO Journal, 2017).

Numbering of substitutions follows the chain as printed.

Details in all cases: protein: recombinant;recombinant;recombinant; tags: C-terminal TEV-cleavable double-StrepTactin tag (cleaved);;; chain copies: 2;1;1; blunt (annealed; only one strand given)
In data set [1] the target is Cep3 (wild type, core complex);Ctf13;Skp1delta (Saccharomyces cerevisiae;Saccharomyces …, UniProt P40969;P35203;P52286 1-608;1-478;1-194, ||del37-64). The data set can be described thus: EMSA; no lambda phosphatase; 1 uM protein, 0.1 uM DNA; EMSA: complex (final buffer 10 mM HEPES, 300 mM NaCl, 1 mM DTT) mixed with DNA, 200 units lambda phosphatase and 1 mM MnCl2, 30 C 30 min, 0.8% agarose gel in TBE; binding pH not stated.
Cep3 (wild type, core complex);Ctf13;Skp1delta, sequence (P40969 whole entry, stated change not applied, chain 1 of 3): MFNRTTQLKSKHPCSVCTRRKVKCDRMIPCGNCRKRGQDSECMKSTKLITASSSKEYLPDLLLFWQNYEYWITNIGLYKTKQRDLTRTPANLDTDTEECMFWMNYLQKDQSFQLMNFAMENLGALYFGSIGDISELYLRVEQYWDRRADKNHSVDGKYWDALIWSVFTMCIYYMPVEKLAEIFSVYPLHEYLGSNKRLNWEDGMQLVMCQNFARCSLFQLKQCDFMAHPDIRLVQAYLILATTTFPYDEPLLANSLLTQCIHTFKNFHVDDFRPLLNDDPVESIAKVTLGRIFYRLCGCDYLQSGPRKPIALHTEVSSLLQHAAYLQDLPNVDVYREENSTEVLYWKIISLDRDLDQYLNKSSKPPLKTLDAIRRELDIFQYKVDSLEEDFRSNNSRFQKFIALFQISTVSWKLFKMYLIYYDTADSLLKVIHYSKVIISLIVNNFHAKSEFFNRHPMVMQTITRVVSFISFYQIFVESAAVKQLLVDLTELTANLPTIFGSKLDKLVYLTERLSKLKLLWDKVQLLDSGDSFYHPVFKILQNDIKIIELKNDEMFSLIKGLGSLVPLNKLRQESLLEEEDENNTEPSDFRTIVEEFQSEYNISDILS
Cep3 (wild type, core complex);Ctf13;Skp1delta, sequence (P35203 whole entry, stated change not applied, chain 2 of 3): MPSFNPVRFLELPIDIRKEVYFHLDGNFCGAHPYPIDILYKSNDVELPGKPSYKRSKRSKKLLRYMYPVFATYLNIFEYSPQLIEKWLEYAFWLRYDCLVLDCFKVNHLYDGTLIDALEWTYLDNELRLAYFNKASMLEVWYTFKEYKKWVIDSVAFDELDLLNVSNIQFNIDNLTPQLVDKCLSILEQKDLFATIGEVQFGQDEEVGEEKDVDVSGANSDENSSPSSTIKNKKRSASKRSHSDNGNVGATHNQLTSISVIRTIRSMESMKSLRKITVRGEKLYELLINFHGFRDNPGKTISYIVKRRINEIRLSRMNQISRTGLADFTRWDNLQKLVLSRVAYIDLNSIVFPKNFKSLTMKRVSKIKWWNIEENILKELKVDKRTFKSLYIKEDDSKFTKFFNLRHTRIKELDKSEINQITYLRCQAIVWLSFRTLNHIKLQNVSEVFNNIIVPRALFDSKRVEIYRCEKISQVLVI
Cep3 (wild type, core complex);Ctf13;Skp1delta, sequence (P52286 other isoform, or with tags, fused parts or gaps ||del37-64 | mutant, chain 3 of 3): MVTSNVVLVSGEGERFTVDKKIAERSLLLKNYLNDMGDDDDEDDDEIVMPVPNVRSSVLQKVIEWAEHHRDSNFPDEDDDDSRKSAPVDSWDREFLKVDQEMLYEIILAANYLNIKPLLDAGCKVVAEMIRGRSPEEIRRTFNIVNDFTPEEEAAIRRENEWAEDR

Data set [2] has as its target Cep3 deltaGal4;Ctf13;Skp1 (wild type) (Saccharomyces cerevisiae;Saccharomyces …, UniProt P40969;P35203;P52286 47-608;1-478;1-194, ||). The data set can be described thus: EMSA; lambda phosphatase, 1 mM MnCl2; 0.3-1 uM protein; EMSA: complex (final buffer 10 mM HEPES, 300 mM NaCl, 1 mM DTT) mixed with DNA, 200 units lambda phosphatase and 1 mM MnCl2, 30 C 30 min, 0.8% agarose gel in TBE; binding pH not stated.

Data set [3] concerns the target T1, Cep3 (wild type, core complex);Ctf13;Skp1 (wild type) (Saccharomyces cerevisiae;Saccharomyces …, UniProt P40969;P35203;P52286 1-608;1-478;1-194, ||). The data set can be described thus: EMSA; lambda phosphatase, 1 mM MnCl2; 0.3-1 uM protein, 0.1 uM DNA; EMSA: complex (final buffer 10 mM HEPES, 300 mM NaCl, 1 mM DTT) mixed with DNA, 200 units lambda phosphatase and 1 mM MnCl2, 30 C 30 min, 0.8% agarose gel in TBE; binding pH not stated. On the technique in general: Mobility shift assays separate free from complexed probe on a gel.

Data set [4] deals with T1, Cep3 (wild type, core …). In words: competition; EMSA, competitor 0.4-1.2 uM vs 0.1 uM N2; same effect as CCG mutant; EMSA: complex (final buffer 10 mM HEPES, 300 mM NaCl, 1 mM DTT) mixed with DNA, 200 units lambda phosphatase and 1 mM MnCl2, 30 C 30 min, 0.8% agarose gel in TBE; binding pH not stated.
Data set [5] deals with T1, Cep3 (wild type, core …). In words: competition; EMSA, competitor 0.4-1.2 uM vs 0.1 uM N2; EMSA: complex (final buffer 10 mM HEPES, 300 mM NaCl, 1 mM DTT) mixed with DNA, 200 units lambda phosphatase and 1 mM MnCl2, 30 C 30 min, 0.8% agarose gel in TBE; binding pH not stated.

T1 sequence (P40969 whole entry, chain 1 of 3): as the sequence (P40969 whole entry, stated change not applied, chain 1 of 3) above
T1 sequence (P35203 whole entry, chain 2 of 3): as the sequence (P35203 whole entry, stated change not applied, chain 2 of 3) above
T1 sequence (P52286 whole entry, chain 3 of 3): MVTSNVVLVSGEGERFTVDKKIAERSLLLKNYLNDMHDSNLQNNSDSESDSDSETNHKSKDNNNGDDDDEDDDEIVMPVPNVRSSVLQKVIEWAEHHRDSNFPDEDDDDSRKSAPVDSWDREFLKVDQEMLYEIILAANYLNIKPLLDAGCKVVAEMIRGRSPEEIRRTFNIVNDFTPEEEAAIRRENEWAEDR
Cep3 deltaGal4;Ctf13;Skp1 (wild type), sequence (P40969 47-608, stated change not applied, chain 1 of 3): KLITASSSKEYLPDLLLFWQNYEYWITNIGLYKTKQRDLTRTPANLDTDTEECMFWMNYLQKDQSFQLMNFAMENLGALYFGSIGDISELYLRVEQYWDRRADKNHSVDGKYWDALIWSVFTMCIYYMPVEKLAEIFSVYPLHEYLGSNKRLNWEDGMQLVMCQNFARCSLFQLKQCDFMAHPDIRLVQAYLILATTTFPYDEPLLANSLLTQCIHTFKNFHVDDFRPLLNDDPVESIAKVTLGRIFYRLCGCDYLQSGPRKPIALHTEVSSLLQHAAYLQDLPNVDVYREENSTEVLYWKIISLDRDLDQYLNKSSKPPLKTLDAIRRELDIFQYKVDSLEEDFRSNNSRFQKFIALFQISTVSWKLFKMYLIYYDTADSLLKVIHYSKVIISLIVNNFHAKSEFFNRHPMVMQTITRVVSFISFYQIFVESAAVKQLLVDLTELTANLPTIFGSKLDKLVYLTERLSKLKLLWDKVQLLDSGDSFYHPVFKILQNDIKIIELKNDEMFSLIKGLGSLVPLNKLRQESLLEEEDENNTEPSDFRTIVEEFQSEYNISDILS
Cep3 deltaGal4;Ctf13;Skp1 (wild type), sequence (P35203 whole entry, stated change not applied, chain 2 of 3, the tested form may be a part): as the sequence (P35203 whole entry, stated change not applied, chain 2 of 3) above
Cep3 deltaGal4;Ctf13;Skp1 (wild type), sequence (P52286 whole entry, stated change not applied, chain 3 of 3, the tested form may be a part): as the sequence (P52286 whole entry, chain 3 of 3) above

B1: 56 bp WT CEN3 (dsDNA)
DNA 1: TATTAGTGTATTTGATTTCCGAAAGTTAAAAAAGAAATAGTAAGAAATATATATTT
DNA 2: AAATATATATTTCTTACTATTTCTTTTTTAACTTTCGGAAATCAAATACACTAATA
Turning to B1, the binding result in data set [1] was “binds”; in data set [2] it was “no binding”; in data set [3], “binds”.

B2: 33 bp double mutant CEN3 (dsDNA)
DNA 1: AAATATTAGAACATTTGATTTGATAAAGTTAAA
DNA 2: TTTAACTTTATCAAATCAAATGTTCTAATATTT
As to B2, the binding result in data set [4] is recorded as “no binding”.

B3: 33 bp wild-type CEN3, unlabelled competitor (dsDNA)
DNA 1: AAATATTAGTGTATTTGATTTCCGAAAGTTAAA
DNA 2: TTTAACTTTCGGAAATCAAATACACTAATATTT
In the case of B3, the binding result in data set [5] is listed as “binds”.

B4: 33 bp CCG mutant CEN3 (dsDNA)
DNA 1: B2 DNA 1 with A10T, A11G, C12T
DNA 2: B2 DNA 2 with G22A, T23C, T24A
For B4, the binding result in data set [5] is “no binding”.
